Data on one substance can be found in PMC4813677.

The test deals with pyruvate kinase M2 (PKM2) (human (endogenous in monocytes and macrophages)) (UniProt P14618). In words: cross-linking.

By stoichiometry N is commonly meant a count of units in the complex or per binding partner.

Sequence of pyruvate kinase M2 (PKM2), P14618 1-531 (enzyme; other documents disagree on this pair) (P14618 whole entry): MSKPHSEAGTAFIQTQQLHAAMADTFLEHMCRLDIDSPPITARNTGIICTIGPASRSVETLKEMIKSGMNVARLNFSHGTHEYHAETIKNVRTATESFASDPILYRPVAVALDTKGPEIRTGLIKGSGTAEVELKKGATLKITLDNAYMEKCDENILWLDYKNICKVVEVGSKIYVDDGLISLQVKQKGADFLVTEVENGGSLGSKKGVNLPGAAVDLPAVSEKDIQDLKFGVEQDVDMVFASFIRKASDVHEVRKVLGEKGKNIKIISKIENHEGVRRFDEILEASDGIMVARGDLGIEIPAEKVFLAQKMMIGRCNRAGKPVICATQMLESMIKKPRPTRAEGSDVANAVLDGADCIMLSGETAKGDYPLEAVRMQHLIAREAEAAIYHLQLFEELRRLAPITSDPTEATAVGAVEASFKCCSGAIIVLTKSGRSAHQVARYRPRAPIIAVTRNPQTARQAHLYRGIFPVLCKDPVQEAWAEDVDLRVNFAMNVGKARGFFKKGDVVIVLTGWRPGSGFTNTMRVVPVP

With “pyruvate kinase M2 (PKM2), P14618 1-531 (enzyme; other documents disagree on this pair)”, the stoichiometry N was 2.
